From paper PMC3130887 (Nature structural & molecular biology, 2011)

Assays:
[1] = target: ADD_(ATRX) (ATRX fragment 167–289) (human) (UniProt P46100); assay: ITC
ADDATRX = target: T1, ADDATRX (Homo sapiens, UniProt P46100, F284Y/K251R); assay type: binding; details: wild type ADDATRX; Kd n.d. in Fig. 4b
T1 sequence (P46100 167-289 K251R/F284Y): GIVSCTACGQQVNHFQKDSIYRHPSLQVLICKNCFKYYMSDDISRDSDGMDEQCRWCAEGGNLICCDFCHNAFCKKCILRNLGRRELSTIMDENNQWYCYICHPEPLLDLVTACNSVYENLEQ

[2] = target: ADD_(ATRX) Y203A mutant (purified, for ITC) (human) (UniProt P46100); assay: ITC
[3] = target: unmodified H3 tail (as used in the SPR assay); assay: SPR

With “H3 peptide trimethylated at both Lys4 and Lys9” the Kd [1] was 4.9 µM and the dH [1] was -12 kcal/mol.

With “H3_5–13K9me3: synthetic H3 peptide, residues 5–13, Lys9 trimethylated (QTARKSTGG; trimethyl-lysine at 9)” the “binding in ITC titration” value (ADDATRX) was “totally lost”.

“H3_(1–15)K9me3 peptide (from UniProt P68431 2-16)” was tested, and the Kd [2] was 4.6 µM and the dH [2] was -4.7 kcal/mol.

B1: ADD_(ATRX) (as used in the SPR assay) (domain or fragment)
chain: KRGEDGLHGIVSCTACGQQVNHFQKDSIYRHPSLQVLICKNCFKYYMSDDISRDSDGMDEQCRWCAEGGNLICCDFCHNAFCKKCILRNLGRKELSTIMDENNQWYCYICHPEPLLDLVTACNSVFENLEQLLQQNKK
With B1 the Kd [3] was 3.2 µM.
